Experimental findings from publication PMC6746701, “A phyB-PIF1-SPA1 kinase regulatory complex promotes photomorphogenesis in Arabidopsis” (Nature Communications, 2019) are described below.

Assay [1] concerns the target T1, strep-tagged full-length mSPA1 (SPA1 R517E) (Arabidopsis, UniProt Q9SYX2 1-1029, R517E).
T1 construct: SPA1, Arabidopsis, full length, with the kinase-domain point mutation R517E; Same construct as m1 apart from R517E; also called mSPA1-strep; mutant SPA1; source: Pichia pastoris, purified (Strep-Tactin Sepharose); not shown: Strep tag, C-terminal, kept
T1 sequence (looked up): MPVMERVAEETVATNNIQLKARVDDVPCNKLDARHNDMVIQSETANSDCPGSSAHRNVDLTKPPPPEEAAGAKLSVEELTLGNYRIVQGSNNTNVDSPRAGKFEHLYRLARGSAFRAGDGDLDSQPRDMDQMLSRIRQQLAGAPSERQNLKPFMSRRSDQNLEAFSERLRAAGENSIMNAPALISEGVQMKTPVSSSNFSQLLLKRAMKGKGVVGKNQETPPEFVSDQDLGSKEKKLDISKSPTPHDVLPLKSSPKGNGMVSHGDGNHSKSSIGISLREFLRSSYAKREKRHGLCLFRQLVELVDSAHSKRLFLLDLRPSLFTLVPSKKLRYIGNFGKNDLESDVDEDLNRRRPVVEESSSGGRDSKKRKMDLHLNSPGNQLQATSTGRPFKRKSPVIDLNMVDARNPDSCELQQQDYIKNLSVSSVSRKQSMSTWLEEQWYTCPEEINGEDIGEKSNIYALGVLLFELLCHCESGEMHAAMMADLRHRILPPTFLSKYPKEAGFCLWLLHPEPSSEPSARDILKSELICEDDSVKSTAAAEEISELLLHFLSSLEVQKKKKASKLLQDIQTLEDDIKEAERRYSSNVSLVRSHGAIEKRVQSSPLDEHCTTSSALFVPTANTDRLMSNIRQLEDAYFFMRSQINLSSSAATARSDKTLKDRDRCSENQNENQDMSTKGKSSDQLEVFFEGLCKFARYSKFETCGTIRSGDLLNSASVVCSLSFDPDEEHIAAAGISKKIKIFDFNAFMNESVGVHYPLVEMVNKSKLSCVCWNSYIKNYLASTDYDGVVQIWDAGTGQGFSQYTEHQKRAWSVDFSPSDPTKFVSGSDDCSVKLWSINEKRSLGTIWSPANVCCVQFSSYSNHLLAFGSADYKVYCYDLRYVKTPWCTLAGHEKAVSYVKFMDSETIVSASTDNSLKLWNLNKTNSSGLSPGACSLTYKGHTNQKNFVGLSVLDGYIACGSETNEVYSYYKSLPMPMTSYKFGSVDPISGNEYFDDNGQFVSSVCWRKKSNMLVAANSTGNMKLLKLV
Description: pull-down; 2 µg GST-PIF1 on GST agarose beads, 1 µg SPA1 or mSPA1; 50 mM Tris pH 7.5, 150 mM NaCl, 1 mM EDTA, 0.1% Tergitol NP-40, 0.5 mM DTT; 2 h at 4 °C; Coomassie staining. As to conditions: both partners purified.

Assay [2] deals with T2, strep-tagged full-length SPA1 (SUPPRESSOR OF PHYA-105 1) (Arabidopsis, UniProt Q9SYX2 1-1029).
T2 construct: 3x Flag was cloned into the SnaBI site of pPIC3.5K SPA1-strep; also called SPA1-strep; wild type SPA1; source: Pichia pastoris GS115, purified (Strep-Tactin Sepharose); not shown: Strep tag, C-terminal, kept
T2 sequence (looked up): T1 sequence (looked up) with E517R
The assay is described as above. As to conditions: both partners purified.

Numbering of substitutions follows the chain as printed.

B1: GST-PIF1-strep (natural protein, Arabidopsis, UniProt Q8GZM7 1-478, looked up)
chain: MHHFVPDFDTDDDYVNNHNSSLNHLPRKSITTMGEDDDLMELLWQNGQVVVQNQRLHTKKPSSSPPKLLPSMDPQQQPSSDQNLFIQEDEMTSWLHYPLRDDDFCSDLLFSAAPTATATATVSQVTAARPPVSSTNESRPPVRNFMNFSRLRGDFNNGRGGESGPLLSKAVVRESTQVSPSATPSAAASESGLTRRTDGTDSSAVAGGGAYNRKGKAVAMTAPAIEITGTSSSVVSKSEIEPEKTNVDDRKRKEREATTTDETESRSEETKQARVSTTSTKRSRAAEVHNLSERKRRDRINERMKALQELIPRCNKSDKASMLDEAIEYMKSLQLQIQMMSMGCGMMPMMYPGMQQYMPHMAMGMGMNQPIPPPSFMPFPNMLAAQRPLPTQTHMAGSGPQYPVHASDPSRVFVPNQQYDPTSGQPQYPAGYTDPYQQFRGLHPTQPPQFQNQATSYPSSSRVSSSKESEDHGNHTTG
notes: source: E. coli BL21(DE3), purified (Strep-Tactin Sepharose); not shown: GST, N-terminal, kept; Strep tag, C-terminal, kept
With B1, the binding result in assay [1] and in assay [2] was “binds” throughout.
